Results from patent US20230235012A1 (ALPINE IMMUNE SCIENCES, published 2023).
Residue numbers refer to the chain shown, from its start. In names and notes the source's numbering stands.

T1: human ICOS, full-length, expressed on transfected Expi293 cells (human, UniProt Q9Y6W8 21-199)
T1 construct: whole, on cells
T1 sequence (looked up): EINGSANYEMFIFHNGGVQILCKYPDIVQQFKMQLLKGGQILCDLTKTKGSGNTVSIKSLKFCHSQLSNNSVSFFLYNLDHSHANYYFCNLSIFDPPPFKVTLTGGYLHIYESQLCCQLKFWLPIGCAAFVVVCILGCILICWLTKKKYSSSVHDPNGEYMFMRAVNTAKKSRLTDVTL

B1: wild-type ICOSL IgV-Fc fusion (Fc fusion)
chain: DTQEKEVRAMVGSDVELSCACPEGSRFDLNDVYVYWQTSESKTVVTYHIPQNSSLENVDSRYRNRALMSPAGMLRGDFSLRLFNVTPQDEQKFHCLVLSQSLGFQEVLSVEVTLHVAANFSVGSGGGGSEPKSSDKTHTCPPCPAPEAEGAPSVFLFPPKPKDTLMISRTPEVTCVVVDVSHEDPEVKFNWYVDGVEVHNAKTKPREEQYNSTYRVVSVLTVLHQDWLNGKEYKCKVSNKALPAPIEKTISKAKGQPREPQVYTLPPSREEMTKNQVSLTCLVKGFYPSDIAVEWESNGQPENNYKTTPPVLDSDGSFFLYSKLTVDKSRWQQGNVFSCSVMHEALHNHYTQKSLSLSPG
notes: also called WT ICOSL
B2: variant ICOSL IgV-Fc fusion N52L/N57H/Q100R (Fc fusion)
chain: B1 chain with N52L, N57H, Q100R
B3: variant ICOSL IgV-Fc fusion N52R/N57F/Q100T (Fc fusion)
chain: B1 chain with N52R, N57F, Q100T
B4: variant ICOSL IgV-Fc fusion N52R/N57L/Q100A (Fc fusion)
chain: B1 chain with N52R, N57L, Q100A
B5: variant ICOSL IgV-Fc fusion N52Q/N57F (Fc fusion)
chain: B1 chain with N52Q, N57F
B6: variant ICOSL IgV-Fc fusion N52H/N57Y/Q100K (Fc fusion)
chain: B1 chain with N52H, N57Y, Q100K
B7: variant ICOSL IgV-Fc fusion N52Q/N57S/Q100A (Fc fusion)
chain: B1 chain with N52Q, N57S, Q100A
B8: variant ICOSL IgV-Fc fusion N52A/N57Y/Q100A (Fc fusion)
chain: B1 chain with N52A, N57Y, Q100A
B9: variant ICOSL IgV-Fc fusion N52R/N57W/Q100K (Fc fusion)
chain: B1 chain with N52R, N57W, Q100K
B10: variant ICOSL IgV-Fc fusion N52G/Q100A (Fc fusion)
chain: B1 chain with N52G, Q100A
B11: variant ICOSL IgV-Fc fusion N52G/N57V/Q100G (Fc fusion)
chain: B1 chain with N52G, N57V, Q100G
B12: variant ICOSL IgV-Fc fusion N52P/N57S/Q100G (Fc fusion)
chain: B1 chain with N52P, N57S, Q100G
B13: variant ICOSL IgV-Fc fusion N52R/N57L/Q100S (Fc fusion)
chain: B1 chain with N52R, N57L, Q100S
B14: variant ICOSL IgV-Fc fusion N52L/N57V (Fc fusion)
chain: B1 chain with N52L, N57V
B15: variant ICOSL IgV-Fc fusion N52R/N57Y/Q100S (Fc fusion)
chain: B1 chain with N52R, N57Y, Q100S
B16: variant ICOSL IgV-Fc fusion N52M/N57W/Q100P (Fc fusion)
chain: B1 chain with N52M, N57W, Q100P
B17: variant ICOSL IgV-Fc fusion N52K/N57Y/Q100R (Fc fusion)
chain: B1 chain with N52K, N57Y, Q100R
B18: variant ICOSL IgV-Fc fusion N52G/N57V (Fc fusion)
chain: B1 chain with N52G, N57V
B19: variant ICOSL IgV-Fc fusion N52M/N57H/Q100S (Fc fusion)
chain: B1 chain with N52M, N57H, Q100S
B20: variant ICOSL IgV-Fc fusion N52A/N57F/Q100S (Fc fusion)
chain: B1 chain with N52A, N57F, Q100S
B21: variant ICOSL IgV-Fc fusion N52C/N57E/Q100S (Fc fusion)
chain: B1 chain with N52C, N57E, Q100S
B22: variant ICOSL IgV-Fc fusion N52R/N57Y/Q100R (Fc fusion)
chain: B1 chain with N52R, N57Y, Q100R
B23: variant ICOSL IgV-Fc fusion N52D/Q100S (Fc fusion)
chain: B1 chain with N52D, Q100S
B24: variant ICOSL IgV-Fc fusion N52D/N57A/Q100A (Fc fusion)
chain: B1 chain with N52D, N57A, Q100A
B25: variant ICOSL IgV-Fc fusion N52R/N57F/Q100R (Fc fusion)
chain: B1 chain with N52R, N57F, Q100R
B26: variant ICOSL IgV-Fc fusion N52A/N57H/Q100S (Fc fusion)
chain: B1 chain with N52A, N57H, Q100S
B27: variant ICOSL IgV-Fc fusion N52R/N57F/Q100P (Fc fusion)
chain: B1 chain with N52R, N57F, Q100P
B28: variant ICOSL IgV-Fc fusion N52V/N57L/Q100A (Fc fusion)
chain: B1 chain with N52V, N57L, Q100A
B29: variant ICOSL IgV-Fc fusion N52R/N57W (Fc fusion)
chain: B1 chain with N52R, N57W
B30: variant ICOSL IgV-Fc fusion N52R/N57F/Q100N (Fc fusion)
chain: B1 chain with N52R, N57F, Q100N
B31: variant ICOSL IgV-Fc fusion N52S/N57L/Q100G (Fc fusion)
chain: B1 chain with N52S, N57L, Q100G
B32: variant ICOSL IgV-Fc fusion N52T/N57Y/Q100A (Fc fusion)
chain: B1 chain with N52T, N57Y, Q100A
B33: variant ICOSL IgV-Fc fusion N52G/N57P/Q100D (Fc fusion)
chain: B1 chain with N52G, N57P, Q100D
B34: variant ICOSL IgV-Fc fusion N52S/N57A/Q100A (Fc fusion)
chain: B1 chain with N52S, N57A, Q100A
B35: variant ICOSL IgV-Fc fusion N52R/N57Y/Q100P (Fc fusion)
chain: B1 chain with N52R, N57Y, Q100P
B36: variant ICOSL IgV-Fc fusion N52T/N57K/Q100P (Fc fusion)
chain: B1 chain with N52T, N57K, Q100P
B37: variant ICOSL IgV-Fc fusion N52P/N57P (Fc fusion)
chain: B1 chain with N52P, N57P

What follows are binders tested against T1, human ICOS, full-length, expressed on … (assay: flow cytometry, 100 nM, Expi293 cells with human ICOS).

| MFI [MFI] | MFI ratio to WT (ΔWT) [fold] | Binder |
| --- | --- | --- |
| 212000 | 1 | B1 |
| 250000 | 1.18 | B2 |
| 270000 | 1.27 | B3 |
| 308000 | 1.45 | B4 |
| 192000 | 0.91 | B5 |
| 214000 |  | B6 |
| 263000 | 1.24 | B7 |
| 261000 | 1.23 | B8 |
| 349000 | 1.65 | B9 |
| 303000 |  | B10 |
| 260000 | 1.23 | B11 |
| 143000 | 0.68 | B12 |
| 231000 | 1.09 | B13 |
| 257000 | 1.21 | B14 |
| 229000 | 1.08 | B15 |
| 322000 | 1.52 | B16 |
| 199000 | 0.94 | B17 |
| 332000 | 1.57 | B18 |
| 266000 | 1.25 | B19 |
| 242000 | 1.14 | B20 |
| 125000 | 0.59 | B21 |
| 6100 | 0.03 | B22 |

Each binder was assayed against T2, human CTLA-4, full-length, expressed on transfected Expi293 cells (human, UniProt P16410 36-223) (assay: flow cytometry, 100 nM, Expi293 cells with human CTLA-4).
T2 construct: whole, on cells
T2 sequence (P16410 36-223): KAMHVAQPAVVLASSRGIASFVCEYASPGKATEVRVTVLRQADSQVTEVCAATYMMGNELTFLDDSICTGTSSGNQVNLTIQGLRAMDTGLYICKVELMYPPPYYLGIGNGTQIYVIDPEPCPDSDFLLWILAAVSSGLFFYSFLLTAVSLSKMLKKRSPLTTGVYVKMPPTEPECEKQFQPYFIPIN

| MFI [MFI] | MFI ratio to WT (ΔWT) [fold] | Binder |
| --- | --- | --- |
| 330000 | 1 | B1 |
| 353000 | 1.07 | B2 |
| 358000 | 1.08 | B3 |
| 333000 |  | B23 |
| 340000 |  | B24 |
| 403000 | 1.22 | B4 |
| 464000 |  | B25 |
| 367000 | 1.11 | B5 |
| 315000 | 0.95 | B7 |
| 321000 |  | B26 |
| 320000 | 0.97 | B8 |
| 504000 |  | B27 |
| 477000 | 1.44 | B9 |
| 14700 | 0.04 | B11 |
| 252000 |  | B28 |
| 5050 | 0.02 | B12 |
| 289000 | 0.88 | B13 |

| MFI [MFI] | MFI ratio to WT (ΔWT) [fold] | Binder |
| --- | --- | --- |
| 151000 | 0.46 | B14 |
| 318000 |  | B29 |
| 233000 |  | B30 |
| 79400 |  | B31 |
| 341000 |  | B32 |
| 10200 |  | B33 |
| 504000 | 1.53 | B15 |
| 233000 |  | B34 |
| 343000 | 1.04 | B16 |
| 233000 | 0.71 | B17 |
| 52500 | 0.16 | B18 |
| 463000 | 1.4 | B19 |
| 255000 | 0.77 | B20 |
| 10600 | 0.03 | B21 |
| 502000 |  | B35 |
| 4270 | 0.01 | B22 |
| 78300 |  | B36 |

The binders below were run against T3, human CD28, full-length, expressed on transfected Expi293 cells (human, UniProt P10747 19-220) (assay: flow cytometry, 100 nM, Expi293 cells with human CD28).
T3 construct: whole, on cells

| MFI [MFI] | MFI ratio to WT (ΔWT) [fold] | Binder |
| --- | --- | --- |
| 22300 | 1 | B1 |
| 141000 | 6.3 | B2 |
| 127000 | 5.7 | B3 |
| 95700 |  | B23 |
| 138000 |  | B24 |
| 119000 | 5.3 | B4 |
| 185000 |  | B25 |
| 131000 | 5.9 | B5 |
| 142000 |  | B6 |
| 91300 | 4.1 | B7 |
| 159000 |  | B26 |
| 147000 | 6.6 | B8 |
| 154000 |  | B27 |
| 131000 | 5.9 | B9 |
| 98700 |  | B10 |
| 23700 | 1.1 | B11 |
| 132000 |  | B28 |
| 6800 | 0.3 | B12 |
| 112000 | 5 | B13 |

| MFI [MFI] | MFI ratio to WT (ΔWT) [fold] | Binder |
| --- | --- | --- |
| 54800 | 2.5 | B14 |
| 137000 |  | B29 |
| 161000 |  | B30 |
| 71900 |  | B31 |
| 161000 |  | B32 |
| 5720 |  | B33 |
| 21000 |  | B37 |
| 133000 | 6 | B15 |
| 98200 |  | B34 |
| 168000 | 7.5 | B16 |
| 141000 | 6.3 | B17 |
| 69100 | 3.1 | B18 |
| 115000 | 5.1 | B19 |
| 157000 | 7 | B20 |
| 13400 | 0.6 | B21 |
| 133000 |  | B35 |
| 3280 | 0.1 | B22 |
| 88700 |  | B36 |
